Measurements published in patent US20230242654A1, “REAGENTS FOR EXPANDING CELLS EXPRESSING RECOMBINANT RECEPTORS” (Juno Therapeutics, Inc., priority 2017, published 2023).

Experiments:
Format in all cases: cell-based, human
[1] = tested on: T cells transduced with anti-CD19 CAR having an scFv derived from FMC63; assay: Cytokine levels and phenotype at thaw versus after 9 days with anti-ID B-1 conjugated beads; settings: 9 days with beads versus immediately after thaw
Description: CD3-purified T cells were isolated from peripheral blood mononuclear cells (PBMCs) of two donor patients, transduced with a viral vector encoding an anti-CD19 CAR having an scFv derived from FMC63 and expanded in culture with anti-CD3 and anti-CD28 antibody coated beads. After expansion, the expanded T cells were frozen by cryopreservation. For the studies, frozen T cells were thawed and CD4+ and CD8+ T cells assessed for intracellular cytokine levels or surface phenotype (d=0) or thawed CD4+, CD8+, or CD4+/CD8+ co-culture T cells were cultured for an additional 9 days in the presence of anti-ID B-1 conjugated beads prior to assessing intracellular cytokine levels and surface marker phenotype following stimulation by PMA/ionomycin or CD19 transduced K562 cells (d=9).
For assessment of intracellular cytokine levels, Golgi inhibitor was added for 4 hours and then TNFα, IFNγ, and IL-2 was assessed by flow cytometry. For all conditions, the extent of intracellular cytokine expression was substantially greater when cells were stimulated in with PMA/ionomycin as compared to CAR-specific stimulation with CD19 transduced K562 cells. […] Similar results were obtained in cells from the two donors.
Surface expression of the activation marker CD25, surface expression of inhibitory receptors PD-1 and LAG-3, and nuclear expression of the proliferation marker Ki-67 were also assessed in CD4+ or CD8+ cells immediately after thaw (d=0) or in CD4+ or CD8+ T cells expanded alone or as a CD4/CD8 co-culture for an additional 9 days in the presence of the anti-ID conjugated beads (d=9).

[2] = tested on: T cells transduced with anti-CD19 CAR having an scFv derived from FMC63; assay: Stimulation of T cells cultured with anti-idiotype antibody-conjugated beads up to 14 days
Description: The FMC63-derived scFv-specific anti-ID B-1-conjugated beads were incubated with T cells. CD3-purified T cells were isolated by immunoaffinity-based enrichment from leukapheresis samples from healthy donors. Isolated cells were transduced with a viral vector encoding an anti-CD19 CAR having an scFv derived from FMC63. The viral vector construct further encoded a truncated EGFR (EGFRt), which served as a surrogate marker for CAR expression; the EGFRt-coding region was separated from the CAR sequence by a T2A skip sequence. After transductions, cells were expanded in culture and frozen by cryopreservation.
For T cells stimulation studies, thawed CD4+ or CD8+ CAR-expressing cells were separately seeded at approximately 50,000 total cells per well. In some cases, the culture media was additionally supplemented with cytokines as follows: for CD4+ cells, approximately 1200 IU/mL recombinant IL-7, 20 IU/mL recombinant IL-15 and 100 IU/mL recombinant IL-2; for CD8+ cells, approximately 200 IU/mL recombinant IL-2 and 20 IU/mL recombinant IL-15. Anti-ID B-1 conjugated beads were added to cells at a 1:1 or 1:5 cell:bead ratio and incubated up to 14 days with a 50% media exchange every 2-3 days. As a positive control, cells were cultured with anti-CD3/anti-CD28 magnetic beads at a 3:1 cell:bead ratio in the presence or absence of the indicated cytokines.
At various times of culture, CD4+ or CD8+ transduced cells (as detected by anti-EGFR for expression of the surrogate marker) were assessed for expansion, PD-1 expression and viability.

[3] = tested on: anti-CD19 CAR-T cell compositions; assay: Long-term (15 day) stimulation with anti-ID conjugated beads of CAR-T compositions made with compounds; settings: 1:1 bead:cell, 15 days, counted every 5 days
Description: Engineered T cell compositions containing T cells that express an anti-CD19 CAR were generated from three separate donors in the presence of different compounds or a vehicle control.
The ability of the cells from the different T cell compositions to expand following stimulation of the CAR was assessed by incubating cells of the generated anti-CD19 CAR-T cell compositions with beads surface conjugated with an anti-idiotype antibody specific to the anti-CD19 CAR. The anti-ID conjugated beads were incubated with cells at a 1:1 bead:cell ratio in wells of 24-well G-rex expansion vessels (Argos Technologies) for 15 days. The total live T cells per well was determined by counting cells in the cultures every 5 days (FIG. 25A). The mean area under the curve (AUC) of the function of T cell number over time was calculated relative to the AUC of cells expanded with media only (FIG. 25B).
Secondary cytokine response after stimulation with antigen-expressing cells was assessed on CAR-T cells from the T cell compositions harvested at day 11 following expansion with anti-ID conjugated beads. The anti-ID stimulated cells were incubated with irradiated K562-CD19 target cells at an effector:target ratio of 1:1 for approximately 16 hours. Supernatant was collected and TNF-alpha, IFN-gamma, and IL-2 cytokine production were measured using a Luminex Multiplex Assay. […]

[4] = tested on: CD4+ or CD8+ CAR-expressing T cells; assay: Expansion after serial restimulation, 4 rounds in 14 days
Description: The ability of cells to expand ex vivo following repeated stimulations may be a potential surrogate for capacity of CAR+ T cells to persist (e.g. following initial activation) and/or is indicative of function in vivo (Zhao et al. (2015) Cancer Cell, 28:415-28). CAR+ T cells were generated as described above and thawed CD4+ or CD8+ CAR-expressing T cells were plated separately at 50,000 CAR+ cells/well. Anti-ID B-1 conjugated beads were added to cells at a 1:1 or 1:5 cell:bead ratio in the presence or absence of cytokines as described in Example 10. As a control, anti-CD3/anti-CD28 magnetic beads were added to cells at a 3:1 cell:bead ratio in the presence or absence of the cytokines. Cells were harvested every 3-4 days and counted, and restimulated with new […] using the same culture conditions after resetting cell number to initial seeding density for each round. A total of 4 rounds of stimulation during a 14 day culture period were carried out. For each round of stimulation, the number of doublings was determined.

B1: anti-ID conjugated beads: FMC63-derived scFv-specific anti-idiotype antibody (B-1 in Examples 10-14) covalently coupled to tosyl-activated magnetic beads (conjugate)
heavy: EVQLQQSGPELVKPGASVKMSCKASGYTFTDYYMKWVKQCHGKSLEWIGDINPNNGGTDYNQNFKGKATLTVDKSSSTAYMQLNSLTSEDSAVYYCAREGNNYGSRDAMDYWGQGTSVTVSSAKTTAPSVYPLAPVCGDTTGSSVTLGCLVKGYFPEPVTLTWNSGSLSSGVHTFPAVLQSDLYTLSSSVTVTSSTWPSQSITCNVAHPASSTKVDKKIEPRGPTIKPCPPCKCPAPNLLGGPSVFIFPPKIKDVLMISLSPIVTCVVVDVSEDDPDVQISWFVNNVEVHTAQTQTHREDYNSTLRVVSALPIQHQDWMSGKEFKCKVNNKDLPAPIERTISKPKGSVRAPQVYVLPPPEEEMTKKQVTLTCMVTDFMPEDIYVEWTNNGKTELNYKNTEPVLDSDGSYFMYSKLRVEKKNWVERNSYSCSVVHEGLHNHHTTKSFSRTPGK
light: QIVLTQSPALMSASPGEKVTMTCSASSGVIYMYWYQQKPRSSPKPWIYLTSNLASGVPARFSGSGSGTSYSLTISSMEAEDAATYYCQQWSSNPLTFGAGTKLELKRADAAPTVSIFPPSSEQLTSGGASVVCFLNNFYPKDINVKWKIDGSERQNGVLNSWTDQDSKDSTYSMSSTLTLTKDEYERHNSYTCEATHKTSTSPIVKSFNRNEC
- expression of CD25 and Ki-67 [1]: reduced expression of CD25, but not Ki-67
- expression of PD-1 and LAG-3 [1]: decreased expression of PD-1 and LAG-3
- levels of IFNγ [1]: Increased levels of IFNγ
- extent of expansion of CD4+ and CD8+ T cells ([2]; 1:1 or 1:5 cell:bead, versus control anti-CD3/anti-CD28 magnetic beads): The extent of expansion was greater
- percent viability of CD4+ and CD8+ T cells ([2]; cultured in the presence of cytokines): remained consistently high
- surface expression of PD-1 on the CD4+ cell subset ([2]; days 3, 7, 10 and 14): substantially lower or undetectable
- total live T cells per well [3]: initial expansion that was followed by a decline in cell number
- expansion of CAR-expressing (EGFRt+) CD4+ cells after restimulation ([4]; 1:1 or 1:5 cell:bead, 4 rounds): continued cell expansion
- extent of expansion of CD4+ cells ([4]; versus anti-CD3/anti-CD28 beads): the extent of expansion was greater
- expansion of CD8+ T cells ([4]; versus anti-CD3/anti-CD28 beads, particularly without recombinant cytokines): expansion was somewhat greater
